# Source: PMC10786891, “Massively parallel profiling of RNA-targeting CRISPR-Cas13d”
# T1: EsCas13d, nuclease-dead (Eubacterium siraeum, UniProt B0MS50, R295A;H300A;R849A;H854A)
# T1 sequence: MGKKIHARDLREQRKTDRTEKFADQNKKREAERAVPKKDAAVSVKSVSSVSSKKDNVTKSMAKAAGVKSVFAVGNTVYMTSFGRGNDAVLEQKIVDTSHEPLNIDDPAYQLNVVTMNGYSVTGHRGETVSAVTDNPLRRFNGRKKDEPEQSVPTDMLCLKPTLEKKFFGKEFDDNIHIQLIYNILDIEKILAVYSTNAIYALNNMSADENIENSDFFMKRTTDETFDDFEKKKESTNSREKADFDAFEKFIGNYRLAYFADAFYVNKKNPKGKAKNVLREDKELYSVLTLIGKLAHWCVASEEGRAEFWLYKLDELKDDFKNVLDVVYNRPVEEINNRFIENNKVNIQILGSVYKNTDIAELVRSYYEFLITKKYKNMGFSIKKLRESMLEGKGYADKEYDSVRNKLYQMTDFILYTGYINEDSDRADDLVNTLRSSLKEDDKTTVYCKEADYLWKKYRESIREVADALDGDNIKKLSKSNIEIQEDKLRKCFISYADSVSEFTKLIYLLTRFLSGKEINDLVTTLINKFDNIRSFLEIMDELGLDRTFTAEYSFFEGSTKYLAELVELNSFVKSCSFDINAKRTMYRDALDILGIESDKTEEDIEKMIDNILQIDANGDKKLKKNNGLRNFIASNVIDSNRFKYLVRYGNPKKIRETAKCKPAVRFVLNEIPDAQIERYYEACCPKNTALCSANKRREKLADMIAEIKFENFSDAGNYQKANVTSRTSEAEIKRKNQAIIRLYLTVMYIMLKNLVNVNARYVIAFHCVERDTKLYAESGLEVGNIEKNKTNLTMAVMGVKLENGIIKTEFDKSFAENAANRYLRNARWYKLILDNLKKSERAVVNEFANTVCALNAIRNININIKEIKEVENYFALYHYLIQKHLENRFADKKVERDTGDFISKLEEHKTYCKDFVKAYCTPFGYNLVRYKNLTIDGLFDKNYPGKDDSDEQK
# B1: target 2 MT 5'PFS GUC 3'PFS CUA (mixed)
# RNA 1: CACCCGUGCAAAAUUGCAGGGGUCUAAAACCUUCUCCAAAUUGUUUCAUCCU
# RNA 2: GGGAAUGGAUCCACAUCUACGAAUUCGUCAGGAUGAAACAAUUUGGAGAAGCUAAGAUCGGAAGAGCACACGU
# B2: target 2 MT 5'PFS GAC 3'PFS CCG (mixed)
# RNA 1: CACCCGUGCAAAAUUGCAGGGGUCUAAAACCUUCUCCAAAUUGUUUCAUCCU
# RNA 2: GGGAAUGGAUCCACAUCUACGAAUUCGACAGGAUGAAACAAUUUGGAGAAGCCGAGAUCGGAAGAGCACACGU
# B3: target 2 MT 5'PFS GUC 3'PFS CUU (mixed)
# RNA 1: CACCCGUGCAAAAUUGCAGGGGUCUAAAACCUUCUCCAAAUUGUUUCAUCCU
# RNA 2: GGGAAUGGAUCCACAUCUACGAAUUCGUCAGGAUGAAACAAUUUGGAGAAGCUUAGAUCGGAAGAGCACACGU
# B4: target 1 insC 3' of 8,insG 3' of 3 (mixed)
# RNA 1: CACCCGUGCAAAAAUGCAGGGGUCUAAAACUGAGCGGAUAACCUCUCUAUGG
# RNA 2: GGGAAUGGAUCCACAUCUACGAAUUCGUACCAUAGAGAGGUUAUCCCGCUGCACCGAGAUCGGAAGAGCACACGU
# B5: target 2 MT 5'PFS GCA 3'PFS CUU (mixed)
# RNA 1: CACCCGUGCAAAAUUGCAGGGGUCUAAAACCUUCUCCAAAUUGUUUCAUCCU
# RNA 2: GGGAAUGGAUCCACAUCUACGAAUUCGCAAGGAUGAAACAAUUUGGAGAAGCUUAGAUCGGAAGAGCACACGU
# B6: target 2 MT 5'PFS UUA 3'PFS UUG (mixed)
# RNA 1: CACCCGUGCAAAAUUGCAGGGGUCUAAAACCUUCUCCAAAUUGUUUCAUCCU
# RNA 2: GGGAAUGGAUCCACAUCUACGAAUUCUUAAGGAUGAAACAAUUUGGAGAAGUUGAGAUCGGAAGAGCACACGU
# B7: target 2 MT 5'PFS GCU 3'PFS UUC (mixed)
# RNA 1: CACCCGUGCAAAAUUGCAGGGGUCUAAAACCUUCUCCAAAUUGUUUCAUCCU
# RNA 2: GGGAAUGGAUCCACAUCUACGAAUUCGCUAGGAUGAAACAAUUUGGAGAAGUUCAGAUCGGAAGAGCACACGU
# B8: target 2 MT 5'PFS UUA 3'PFS UUA (mixed)
# RNA 1: CACCCGUGCAAAAUUGCAGGGGUCUAAAACCUUCUCCAAAUUGUUUCAUCCU
# RNA 2: GGGAAUGGAUCCACAUCUACGAAUUCUUAAGGAUGAAACAAUUUGGAGAAGUUAAGAUCGGAAGAGCACACGU
# B9: target 2 MT 5'PFS CGC 3'PFS CUA (mixed)
# RNA 1: CACCCGUGCAAAAUUGCAGGGGUCUAAAACCUUCUCCAAAUUGUUUCAUCCU
# RNA 2: GGGAAUGGAUCCACAUCUACGAAUUCCGCAGGAUGAAACAAUUUGGAGAAGCUAAGAUCGGAAGAGCACACGU
# B10: target 2 MT 5'PFS ACA 3'PFS CGC (mixed)
# RNA 1: CACCCGUGCAAAAUUGCAGGGGUCUAAAACCUUCUCCAAAUUGUUUCAUCCU
# RNA 2: GGGAAUGGAUCCACAUCUACGAAUUCACAAGGAUGAAACAAUUUGGAGAAGCGCAGAUCGGAAGAGCACACGU
# B11: target 2 MT 5'PFS CGC 3'PFS CUC (mixed)
# RNA 1: CACCCGUGCAAAAUUGCAGGGGUCUAAAACCUUCUCCAAAUUGUUUCAUCCU
# RNA 2: GGGAAUGGAUCCACAUCUACGAAUUCCGCAGGAUGAAACAAUUUGGAGAAGCUCAGAUCGGAAGAGCACACGU
# B12: target 2 MT 5'PFS ACA 3'PFS CGG (mixed)
# RNA 1: CACCCGUGCAAAAUUGCAGGGGUCUAAAACCUUCUCCAAAUUGUUUCAUCCU
# RNA 2: GGGAAUGGAUCCACAUCUACGAAUUCACAAGGAUGAAACAAUUUGGAGAAGCGGAGAUCGGAAGAGCACACGU
# B13: target 2 MT 5'PFS CGC 3'PFS CUG (mixed)
# RNA 1: CACCCGUGCAAAAUUGCAGGGGUCUAAAACCUUCUCCAAAUUGUUUCAUCCU
# RNA 2: GGGAAUGGAUCCACAUCUACGAAUUCCGCAGGAUGAAACAAUUUGGAGAAGCUGAGAUCGGAAGAGCACACGU
# Target: T1, EsCas13d, nuclease-dead
# Assay: crRNA (strand 1, pre-loaded); Mg2+; 40 mM Tris-HCl pH 7.5, 150 mM NaCl, 6 mM MgCl2, 1 mM DTT, 0.1% Tween-20, 0.2 mg/ml BSA; 25 C; 10 min per concentration, then washed
# Conditions: tags: His6-TwinStrep-SUMO cleaved; N-terminal SNAP kept (SNAP-Surface 488); label: 3' end held by stalled T7 RNA polymerase
row,Binder,Kd [nM]
1,B1,11.8 ± 1.8
2,B2,13 ± 1.5
3,B3,13.9 ± 1.2
4,B4,9.8 ± 0.4
5,B5,16 ± 4
6,B6,19.3 ± 2.8
7,B7,~90
8,B8,49 ± 21
9,B9,7.4 ± 1.8
10,B10,4.9 ± 0.7
11,B11,9.6 ± 1.7
12,B12,5.2 ± 0.9
13,B13,8 ± 1.9
